According to the nanobody polyreactivity screen of Harvey et al. (2022):

Assay: yeast display, Sf9 membrane polyspecificity reagent, FACS + sequencing; frameworks hold sequencing errors
How it was run: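 Polyreactivity labels are assigned by the sorting gate from which each nanobody was recovered. The gates were low and high (top ~1%), set on anti-HA fluorescence for expression and streptavidin fluorescence for reagent binding. Before sorting, galactose-induced (36–48 hours) yeast display cells were stained for 1 hour at 4 °C with 10% biotinylated, detergent-solubilized Sf9 membrane reagent.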

For “QVQLVESGGGLVQAGGSLRLSCAASGSILNLNAMGWYRQAPGKERELVAAIRGGGRTNYADSVKGRFTISRDNAKNTVYLQMNSLKPEDTAVYYCAARITRPLTGYDYWGQGTQVTVSS”, the “polyreactivity (PSR sort gate)” value was “high polyreactivity”.

With “QVQLVESGGCLVQAGGSLRLSCAASGNTFPYYDMGWYRQAPGKERELVAVIRTGDDTNYADSVKGRFTISRDNAKNTVYLQMNSLKPEDTAVYYCAVVGPKGADGLPPYNRMDYWGHGTQVTVSS” the “polyreactivity (PSR sort gate)” value was “low polyreactivity”.

In the case of “QFQLVESGGGLVQAGGSLRLSCPAYGSNLSRYAMGWYRQSPGKVRELVATITRRGGSTFYADSVKGRFTISRDNAKNTVYLQMNSLKPDDTADYYCAVGRLFWGQGTQVTVSS”, the “polyreactivity (PSR sort gate)” value is reported as “low polyreactivity”.

In the case of “QVQLVESGGGLVQAGGSLRLSCAASGRTFAYYAMGWYRQAPGKERELVAAISSGGGSTYYADSVKGRFTISRDNAKNTVYLQMNSLKPEDTAVYYCNKGFEYWGQGTQVTVSS”, the “polyreactivity (PSR sort gate)” value is reported as “high polyreactivity”.

With “QVQLAESGGGLVQAGGSLRLSCAASGSIFWGNAMGWYRQATGKERELVAAIDWSGGSTYYADSVKGRFTISRDNGKNTVYLQMNSLKAEDTAVYYCAASGRYDYDYWGQGTQVTVSS” the “polyreactivity (PSR sort gate)” value was “low polyreactivity”.

With “QVQLVESGGGLVQAGGSLRLSCAASGGILYHYAMGWYRQAPGIERELVAAIRWSGGSTYYADSVKGRFTISRDNAKNTVYLQMNSLKPEDTAVYYCAADVYYYHVLDFDYWGQGTQVTVSS” the “polyreactivity (PSR sort gate)” value was “low polyreactivity”.

In the case of “QVQLEESGGGLVQAGGSLRLSCAASGSIFWLYAMGWYRQAPGKEREFVAAITTSGSSTRYADSVKGRFTISRDNAKNTVYVQMNSLKPEDTAVYYCAARNRTFFQPTYYYWGQGTQVTVSS”, the “polyreactivity (PSR sort gate)” value is reported as “high polyreactivity”.

In the case of “QVQLVESGGGLVQAGGSLRLSCAASGSTFDHYAMGWYRQAPGKERELVAAITRSGGSTYYADSVKGRFTISRDNAKNTVYLQMNSLKPEDTAVYYCNARRWITSDYWGQGTQVTVSS”, the “polyreactivity (PSR sort gate)” value is reported as “high polyreactivity”.

With “QVQLVESGGGLVQAGGSLRLSCAASGRIFPWYAMGWYRQAPGKERELVAAISWSGGRTYYADSVKGRFTISRDNAKNTVYLQMNSLKPEDTAVYYCAAERVTYTISYSYSYDYWGQGTQVTVSS” the “polyreactivity (PSR sort gate)” value was “high polyreactivity”.

With “QVQLVESGGGLVQAGGSLRLICAASGRTFDGYVMGLYRQAPGKERELVASIRGTGSTYYADSVKGRFTISRENAKNTVYLQMNSLKPEDTAVYYCAARPGYAYDWGQGTQVTVSS” the “polyreactivity (PSR sort gate)” value was “high polyreactivity”.

For “QVQLVESGGGLVQAGGSLRLSCAASGSTSRLNAMGWYRQAPGKERELVAAISGSGGRTYYADSVKGRFTISRDTAKTTVYLQMNSQKPEDTAVYYCNAAYSAKVHPEMYYWGPGTQVTVSS”, the “polyreactivity (PSR sort gate)” value was “high polyreactivity”.

For “QVQLVESGGGLVQAGGSLRLSCAASGFTVGYAMGWYRQAPGKERELVAAITRGGGTRTSYADSVKGRFTISRDNAKNTVYLQMNSLKPEDTAVYYCAARRWWSPRTQYDYWGQGTQVTVSS”, the “polyreactivity (PSR sort gate)” value was “high polyreactivity”.

In the case of “QVQLVESGGGLVQAGGSLRLSCAASGLTSWYNAMGWYRQAPGKEREFVAAISFSGGRTFYADSVKGRFTISRDNAKKTVYLQMNSLKPEDTAGYYCNADVYGFDYWGQGTQVTVSS”, the “polyreactivity (PSR sort gate)” value is reported as “high polyreactivity”.

In the case of “QVQLVESGGGLVQAGGSLRLSCAASGRTFIINTMGWYRQAPGTERQLVAAISKNGATTNYADSVKGRFTISRDNAKNTVYLQMNSLKPVDTAVYYCNARYSGYLRLDYWGQGTQVTVSS”, the “polyreactivity (PSR sort gate)” value is reported as “low polyreactivity”.

For “RVQLVESGGGLVQAGGSLRLSCAASGRIFAQYPMGWYRKAPRKERELLAAITTTGRTYYADSVKGRFTISRDNAKNTVYLQMNSLKPEDTAVSYCAVGYHAPNVSTSDPRYDYWGQGTQVTVSS”, the “polyreactivity (PSR sort gate)” value was “low polyreactivity”.

For “QVQLVESGGGLVQAGGSLRLSCAASGSIFLVNAMGWSRQAPGKERELVASITWRGGRTYYAASVKGRFTISRDNAKNTVYLQMNSLKPEDTAVYYCAARNYRTGERLRYDYWGQGTQVTVSS”, the “polyreactivity (PSR sort gate)” value was “low polyreactivity”.

In the case of “QVQLVESGGGLVQAGGSLRLSCAASGSIFYRYAMGWYRQAPGKERELVATISLSGGSTYADSVKGRFTISRDNAKNTVYLQMNSLKPEDTAVYYCAAGGQYYIIRYDYWGQGTQVTVSS”, the “polyreactivity (PSR sort gate)” value is reported as “low polyreactivity”.

With “QVQLVESGGGLVQAGVSLRLSCAASGSTYNAMGWYRQAPGKEREFVAAITSSGGSTYYADSVKGRFTISRDNAKNTVYLHMNSLNPEDTAVYYCASSYWTAWYQLDYWGQGTQVTVSS” the “polyreactivity (PSR sort gate)” value was “high polyreactivity”.

For “QVQLVESGGGLVQAGGSLRLSCAASGLTFDANAMGWYRQAPGKERELVATITSGGSTNYADSVKGRFTISRDNAKNTVYLQMNSLKPEDTAVYYCARGTSTGTYYWYGYWGHGTQVTVSS”, the “polyreactivity (PSR sort gate)” value was “low polyreactivity”.

In the case of “QVQLEESGGGLVQAGGSLRLSCAASGIIIKYYAMGWYSQAPGKESELVAAISSSGGKTYYADSVKGRFTISRDNAKNTVYLQMKSLKPEDTGVDYCAAQRYVRYKYDYWGQGTQVTVSS”, the “polyreactivity (PSR sort gate)” value is reported as “high polyreactivity”.

In the case of “QVQLVESGGGLVHAGGSLRLSCAASGIILSDNSMGWYRQAPGKEREVVAAITGSGGSTYYADSVKGRFTISRDNAKNTVYLQMNSLKPEDTAVYYCAADGPYGYYYGHYGYWGQGTQVTVSS”, the “polyreactivity (PSR sort gate)” value is reported as “low polyreactivity”.

In the case of “QVQLVESGGGLVQAGGSLRLSCAASGFTFYTNAMGWYRQAPGKERELVAGINSGSSTYYADSVKGRFTISRDNAKNNVYLQMNSLKPEDTAVYYCAARRSRYIHRGFGYWGQGTQVTVSS”, the “polyreactivity (PSR sort gate)” value is reported as “high polyreactivity”.

For “QDQLVESGGCLVQAGGSLRLSCAASGSIFYVNAMGWYRPAPRKERELVAGISRSGGRTYYADSVKGRFTISRDNAKNTVYLHMNSLIPEDTAVYYCAALVGRIWYGLDYWGQGTQVTVSS”, the “polyreactivity (PSR sort gate)” value was “high polyreactivity”.

With “QVQLVESGGGLVQAGGSLRLSCAASGRIFYPYAMGWYRQAPGKERELVADISSAGSTYYADSVKGRFTISRDNAKNTVYLQMNSLKPEDTAVYYCAADRTSGAYYFRFLYDRDYWGQGTQVTVSS” the “polyreactivity (PSR sort gate)” value was “low polyreactivity”.

For “QVQLVESGGGLVQAGGSLRLSCAASGSIFPYYTMGWYRQAPGKERELVAAISGSGTSTYYADSVKGRFTISRDNAKNTVYLQMNSLKPEDTAVYYCAKRFRYGYVNYYYWGQGTQVTVSS”, the “polyreactivity (PSR sort gate)” value was “low polyreactivity”.

With “QVQLVESGGGLVQAGGSLRLSCAASGRIFGLYAMGWYRQAPGKERELVAAYADSVKGRFTISRDYAKNTVYLQMNSLKPEDTAVYYCAKGPLYAGYSIDLRDFNYWGQGTQVTVSS” the “polyreactivity (PSR sort gate)” value was “low polyreactivity”.

In the case of “QVQLVESGGGLVQAGGSLRLSCAASGRTFTPYAMGWYRQAPGKERELVATISSGTSTNYADSVKGRFTISRDNAKNTVYLQMNSLKPEDTAVYYCAADGYTYKFDYWGQGTQVTVSS”, the “polyreactivity (PSR sort gate)” value is reported as “low polyreactivity”.

For “QVQLVESGGGLVQAGGSLRLSCAASGGTFSSYDMGWYRQAPGKERELVAAISWSGSSTDYADSVKGRFTISRDNAKNTVYLQMNSLKPEDTAVYYCNTDYWEITYSGVIWPEYDYWGQGTQVTVSS”, the “polyreactivity (PSR sort gate)” value was “low polyreactivity”.

For “QVQLVESGGGLVQAGGSLRLSCAASGFTFVRYAMGWYTQAPGKERELDAAITRGGGSTYYADSVKGRFTISRDYAKNTVYLQMNSLKPEDTAVYYCAKGPGRPVSYEIPYKYNYWGQGTHVTVSS”, the “polyreactivity (PSR sort gate)” value was “high polyreactivity”.

With “QVQLVESGGGLVQAGGSLRLSCAASGSTFTYNAMGWYRQAPGKERELVASISSGTTTYYADSVKGRFTISRDNAKNTVYLQMNSLKPEDTAVYYCNADYFDYSRPRYDYWGQGTQVTVSS” the “polyreactivity (PSR sort gate)” value was “low polyreactivity”.

For “QVQLVESGGGLVQAGGSLRLSCAASGSIIFRYNMGWSRQAPGKERELVAAITTGGSTNYADSVKGRFTISRDNAKNTVSLQMNSLKPEDTAVYYCNRDNRRWTRAAVRVDFYYWGQGTQVTVSS”, the “polyreactivity (PSR sort gate)” value was “high polyreactivity”.

In the case of “QVQLVESGGGLVQAGGSLRLSCAASGSTFGTNAMGWSRQAPGKERELVAAITYSGGSTYYADSVKGRFTISRDNAKNTVYVQLNSLKPEDTAVYYCAARGHSSKYLWSYEYYYWGQGTQVTVSS”, the “polyreactivity (PSR sort gate)” value is reported as “low polyreactivity”.

With “QVQLEESGGGLVQAGGSLRLSSAASGSIFGVNPMGWYRQTPGKERELVARINWSSGRTYYADSVKGRFTISRDNAKNTVYLQMNCLKPEDTAVYYCAAAYWRPGVRFFGPYDYWGQGTQVTVSS” the “polyreactivity (PSR sort gate)” value was “high polyreactivity”.

For “QVQLVESGGGLVQAGGSLRLSCAASGFNFASYAMGWYRQAPGKERELVAAISWRGGSTYYADSVKGRFTISRDNAKNTVYLQMNSLKPEDTAVYYCNAYVYVGTGRGYDTLDYWGQGTQVTLSS”, the “polyreactivity (PSR sort gate)” value was “low polyreactivity”.

In the case of “QVQLVESGGGLVQAGGSLRLSSAASGRIFSDYAMGWYRQAPGKERELVATITSGDSTNYADSVKGRFTISRDNAKNTVYLQMNSLKPEDTAVYYCNADRFADYDYWGQGTQVTVSS”, the “polyreactivity (PSR sort gate)” value is reported as “low polyreactivity”.

In the case of “QVQLVESGGGLVQAGGSLRLSCAASGGIFSSYVMGWYRQAPGKERELVAAIRWSGSSTYYADSVKGRFTISRDNAKNTVYLQMNSLKPEDTAVYYCAAYRDYGSYGSWGQGTQVTVSS”, the “polyreactivity (PSR sort gate)” value is reported as “high polyreactivity”.

In the case of “QVQLVESGGGLVQAGGSLRLSCAASAFTLYPYAKGWYRQAPGKERELVAAISGSGGSTYYADSVKGRFTISRDNAKNTVYLQMNRLKPEDTAVYYCAARYLDVRPFYYWGQGTQVTVSS”, the “polyreactivity (PSR sort gate)” value is reported as “high polyreactivity”.

In the case of “QVQLEESGGGLVQAGGSLRLSCAASGSIFGTYAMGWYRQAPGKEREFVAAISWSDGSTYYADSVKGRFTISRDNAKNTVYLQMNSLKPEDTAVYYCAVRRVGSIYIDRYIYVVADYDYWGQGTQVTVSS”, the “polyreactivity (PSR sort gate)” value is reported as “low polyreactivity”.

In the case of “QVQLVESGGGLVQAGGSLRISCAASGFTFSYNTMGWYRQAPGKERELVAAITGDVSTNYADSVKGRFTISRDNAKNTVYLQMNSLKPEDTAVYYCAARPNFPGYEDLSVDFEYWGQGTQGTVSS”, the “polyreactivity (PSR sort gate)” value is reported as “low polyreactivity”.

With “QVQLVESGGGLVQAGGSLRLSCAASGRIFYPNALGWYRQAPGTERELVAAITWRGGRTYYADSVKGRFTISRDNAKNTVYLQMNSLKPEDTAVYYCNAVAPGKYNHWGQGTQVTVSS” the “polyreactivity (PSR sort gate)” value was “high polyreactivity”.

With “QVQLVESGGGLVQAGGSLRLSCDASGSIFQAYAIGWYRQAPGKEREFVAVITWGGGSTSYADSVKGRFTISRDNAKNTVYLQMNSLKPEDTAVYYCNADSQEWIWLYEGYDYWGQGTQVTVSS” the “polyreactivity (PSR sort gate)” value was “low polyreactivity”.

In the case of “QVQLVESGGRLVQAGGSLRLSCDASGRTSRRNAMGWYRQAPGKERELVAGITWRGGSTYYADSVKGRFTISRDNAKNTVYLQMNSLKPEDPEVYYCAAYTYPHEYDYWGQGTQVTVSS”, the “polyreactivity (PSR sort gate)” value is reported as “low polyreactivity”.

For “QVQLVESGGGLVQAGGSLRLSCAASGRIFPYYAMGWYRQEPGKEREFVAAISSSGDSTYYADSVKGRFTISRDNAKNTVYLQMNSLKPEDTPVYYCATRYRSSQWYSPYKYDYWGQGTQVTLSS”, the “polyreactivity (PSR sort gate)” value was “low polyreactivity”.
